Test results from PMC4355161.

Molecular target: 30/30 nucleosomes labeled with Cy3 on H4 A15C, P62799
Assay: other fluorescence titration

B1: SNF2h ΔHSS (domain or fragment)
chain: MSSAAEPPPPPPPESAPSKPAASIASGGSNSSNKGGPEGVAAQAVASAASAGPADAEMEEIFDDASPGKQKEIQEPDPTYEEKMQTDRANRFEYLLKQTELFAHFIQPAAQKTPTSPLKMKPGRPRIKKDEKQNLLSVGDYRHRRTEQEEDEELLTESSKATNVCTRFEDSPSYVKWGKLRDYQVRGLNWLISLYENGINGILADEMGLGKTLQTISLLGYMKHYRNIPGPHMVLVPKSTLHNWMSEFKRWVPTLRSVCLIGDKEQRAAFVRDVLLPGEWDVCVTSYEMLIKEKSVFKKFNWRYLVIDEAHRIKNEKSKLSEIVREFKTTNRLLLTGTPLQNNLHELWSLLNFLLPDVFNSADDFDSWFDTNNCLGDQKLVERLHMVLRPFLLRRIKADVEKSLPPKKEVKIYVGLSKMQREWYTRILMKDIDILNSAGKMDKMRLLNILMQLRKCCNHPYLFDGAEPGPPYTTDMHLVTNSGKMVVLDKLLPKLKEQGSRVLIFSQMTRVLDILEDYCMWRNYEYCRLDGQTPHDERQDSINAYNEPNSTKFVFMLSTRAGGLGINLATADVVILYDSDWNPQVDLQAMDRAHRIGQTKTVRVFRFITDNTVEERIVERAEMKLRLDSIVIQQGRLVDQNLNKIGKDEMLQMIRHGATHVFASKESEITDEDIDGILERGAKKTAEMNEKLSKMGESSLRNFTMDTESSVYNFEGEDYREKQKIAFTE
modifications: not checked
fold decrease in affinity against wild type SNF2h: 56 fold | fold decrease in binding against wild type SNF2h: 22 fold
